This is an account of results in paper PMC10540216, “Activity Guided Azide-methyllysine Photo-trapping for Substrate Profiling of Lysine Demethylases” (Journal of the American Chemical Society, 2023).

The labels stand for the following.
B1: K1H1_HUMAN (protein, UniProt Q15323 1-416, looked up)
Keratin, type I cuticular Ha1: MPYNFCLPSLSCRTSCSSRPCVPPSCHSCTLPGACNIPANVSNCNWFCEGSFNGSEKETMQFLNDRLASYLEKVRQLERDNAELENLIRERSQQQEPLLCPSYQSYFKTIEELQQKILCTKSENARLVVQIDNAKLAADDFRTKYQTELSLRQLVESDINGLRRILDELTLCKSDLEAQVESLKEELLCLKSNHEQEVNTLRCQLGDRLNVEVDAAPTVDLNRVLNETRSQYEALVETNRREVEQWFTTQTEELNKQVVSSSEQLQSYQAEIIELRRTVNALEIELQAQHNLRDSLENTLTESEARYSSQLSQVQSLITNVESQLAEIRSDLERQNQEYQVLLDVRARLECEINTYRSLLESEDCNLPSNPCATTNACSKPIGPCLSNPCTSCVPPAPCTPCAPRPRCGPCNSFVR
B2: LYSC_HUMAN (protein, UniProt P61626 19-148, looked up)
Lysozyme C: KVFERCELARTLKRLGMDGYRGISLANWMCLAKWESGYNTRATNYNAGDRSTDYGIFQINSRYWCNDGKTPGAVNACHLSCSALLQDNIADAVACAKRVVRDPQGIRAWVAWRNRCQNRDVRQYVQGCGV
B3: KT33A_HUMAN (protein, UniProt O76009 1-404, looked up)
Keratin, type I cuticular …: MSYSCGLPSLSCRTSCSSRPCVPPSCHGCTLPGACNIPANVSNCNWFCEGSFNGSEKETMQFLNDRLASYLEKVRQLERDNAELENLIRERSQQQEPLVCASYQSYFKTIEELQQKILCSKSENARLVVQIDNAKLASDDFRTKYETELSLRQLVESDINGLRRILDELTLCRSDLEAQVESLKEELLCLKQNHEQEVNTLRCQLGDRLNVEVDAAPTVDLNQVLNETRSQYEALVETNRREVEQWFATQTEELNKQVVSSSEQLQSYQAEIIELRRTVNALEIELQAQHNLRDSLENTLTESEARYSSQLSQVQRLITNVESQLAEIRSDLERQNQEYQVLLDVRARLECEINTYRSLLESEDCKLPSNPCATTNACDKSTGPCISNPCGLRARCGPCNTFGY
B4: HNRPQ_HUMAN (protein, UniProt O60506 2-623, looked up)
Heterogeneous nuclear …: ATEHVNGNGTEEPMDTTSAVIHSENFQTLLDAGLPQKVAEKLDEIYVAGLVAHSDLDERAIEALKEFNEDGALAVLQQFKDSDLSHVQNKSAFLCGVMKTYRQREKQGTKVADSSKGPDEAKIKALLERTGYTLDVTTGQRKYGGPPPDSVYSGQQPSVGTEIFVGKIPRDLFEDELVPLFEKAGPIWDLRLMMDPLTGLNRGYAFVTFCTKEAAQEAVKLYNNHEIRSGKHIGVCISVANNRLFVGSIPKSKTKEQILEEFSKVTEGLTDVILYHQPDDKKKNRGFCFLEYEDHKTAAQARRRLMSGKVKVWGNVGTVEWADPIEDPDPEVMAKVKVLFVRNLANTVTEEILEKAFSQFGKLERVKKLKDYAFIHFDERDGAVKAMEEMNGKDLEGENIEIVFAKPPDQKRKERKAQRQAAKNQMYDDYYYYGPPHMPPPTRGRGRGGRGGYGYPPDYYGYEDYYDYYGYDYHNYRGGYEDPYYGYEDFQVGARGRGGRGARGAAPSRGRGAAPPRGRAGYSQRGGPGSARGVRGARGGAQQQRGRGVRGARGGRGGNVGGKRKADGYNQPDSKRRQTNNQNWGSQPIAQQPLQGGDHSGNYGYKSENQEFYQDTFGQQWK
B5: ADAS_HUMAN (protein, UniProt O00116 59-658, looked up)
Alkyldihydroxyacetonephosphate …: KARRAASAATAAPTATPAAQESGTIPKKRQEVMKWNGWGYNDSKFIFNKKGQIELTGKRYPLSGMGLPTFKEWIQNTLGVNVEHKTTSKASLNPSDTPPSVVNEDFLHDLKETNISYSQEADDRVFRAHGHCLHEIFLLREGMFERIPDIVLWPTCHDDVVKIVNLACKYNLCIIPIGGGTSVSYGLMCPADETRTIISLDTSQMNRILWVDENNLTAHVEAGITGQELERQLKESGYCTGHEPDSLEFSTVGGWVSTRASGMKKNIYGNIEDLVVHIKMVTPRGIIEKSCQGPRMSTGPDIHHFIMGSEGTLGVITEATIKIRPVPEYQKYGSVAFPNFEQGVACLREIAKQRCAPASIRLMDNKQFQFGHALKPQVSSIFTSFLDGLKKFYITKFKGFDPNQLSVATLLFEGDREKVLQHEKQVYDIAAKFGGLAAGEDNGQRGYLLTYVIAYIRDLALEYYVLGESFETSAPWDRVVDLCRNVKERITRECKEKGVQFAPFSTCRVTQTYDAGACIYFYFAFNYRGISDPLTVFEQTEAAAREEILANGGSLSHHHGVGKLRKQWLKESISDVGFGMLKSVKEYVDPNNIFGNRNLL
B6: ACINU_HUMAN (protein, UniProt Q9UKV3 1-1341, looked up)
Apoptotic chromatin …: MWRRKHPRTSGGTRGVLSGNRGVEYGSGRGHLGTFEGRWRKLPKMPEAVGTDPSTSRKMAELEEVTLDGKPLQALRVTDLKAALEQRGLAKSGQKSALVKRLKGALMLENLQKHSTPHAAFQPNSQIGEEMSQNSFIKQYLEKQQELLRQRLEREAREAAELEEASAESEDEMIHPEGVASLLPPDFQSSLERPELELSRHSPRKSSSISEEKGDSDDEKPRKGERRSSRVRQARAAKLSEGSQPAEEEEDQETPSRNLRVRADRNLKTEEEEEEEEEEEEDDEEEEGDDEGQKSREAPILKEFKEEGEEIPRVKPEEMMDERPKTRSQEQEVLERGGRFTRSQEEARKSHLARQQQEKEMKTTSPLEEEEREIKSSQGLKEKSKSPSPPRLTEDRKKASLVALPEQTASEEETPPPLLTKEASSPPPHPQLHSEEEIEPMEGPAPAVLIQLSPPNTDADTRELLVSQHTVQLVGGLSPLSSPSDTKAESPAEKVPEESVLPLVQKSTLADYSAQKDLEPESDRSAQPLPLKIEELALAKGITEECLKQPSLEQKEGRRASHTLLPSHRLKQSADSSSSRSSSSSSSSSRSRSRSPDSSGSRSHSPLRSKQRDVAQARTHANPRGRPKMGSRSTSESRSRSRSRSRSASSNSRKSLSPGVSRDSSTSYTETKDPSSGQEVATPPVPQLQVCEPKERTSTSSSSVQARRLSQPESAEKHVTQRLQPERGSPKKCEAEEAEPPAATQPQTSETQTSHLPESERIHHTVEEKEEVTMDTSENRPENDVPEPPMPIADQVSNDDRPEGSVEDEEKKESSLPKSFKRKISVVSATKGVPAGNSDTEGGQPGRKRRWGASTATTQKKPSISITTESLKSLIPDIKPLAGQEAVVDLHADDSRISEDETERNGDDGTHDKGLKICRTVTQVVPAEGQENGQREEEEEEKEPEAEPPVPPQVSVEVALPPPAEHEVKKVTLGDTLTRRSISQQKSGVSITIDDPVRTAQVPSPPRGKISNIVHISNLVRPFTLGQLKELLGRTGTLVEEAFWIDKIKSHCFVTYSTVEEAVATRTALHGVKWPQSNPKFLCADYAEQDELDYHRGLLVDRPSETKTEEQGIPRPLHPPPPPPVQPPQHPRAEQREQERAVREQWAEREREMERRERTRSEREWDRDKVREGPRSRSRSRDRRRKERAKSKEKKSEKKEKAQEEPPAKLLDDLFRKTKAAPCIYWLPLTDSQIVQKEAERAERAKEREKRRKEQEEEEQKEREKEAERERNRQLEREKRREHSRERDRERERERERDRGDRDRDRERDRERGRERDRRDTKRHSRSRSRSTPVRDRGGRR
B7: TCPQ_HUMAN (protein, UniProt P50990 2-548, looked up)
T-complex protein 1 subunit …: ALHVPKAPGFAQMLKEGAKHFSGLEEAVYRNIQACKELAQTTRTAYGPNGMNKMVINHLEKLFVTNDAATILRELEVQHPAAKMIVMASHMQEQEVGDGTNFVLVFAGALLELAEELLRIGLSVSEVIEGYEIACRKAHEILPNLVCCSAKNLRDIDEVSSLLRTSIMSKQYGNEVFLAKLIAQACVSIFPDSGHFNVDNIRVCKILGSGISSSSVLHGMVFKKETEGDVTSVKDAKIAVYSCPFDGMITETKGTVLIKTAEELMNFSKGEENLMDAQVKAIADTGANVVVTGGKVADMALHYANKYNIMLVRLNSKWDLRRLCKTVGATALPRLTPPVLEEMGHCDSVYLSEVGDTQVVVFKHEKEDGAISTIVLRGSTDNLMDDIERAVDDGVNTFKVLTRDKRLVPGGGATEIELAKQITSYGETCPGLEQYAIKKFAEAFEAIPRALAENSGVKANEVISKLYAVHQEGNKNVGLDIEAEVPAVKDMLEAGILDTYLGKYWAIKLATNAAVTVLRVDQIIMAKPAGGPKPPSGKKDWDDDQND
B8: PDC6I_HUMAN (protein, UniProt Q8WUM4 2-868, looked up)
Programmed cell death …: ATFISVQLKKTSEVDLAKPLVKFIQQTYPSGGEEQAQYCRAAEELSKLRRAAVGRPLDKHEGALETLLRYYDQICSIEPKFPFSENQICLTFTWKDAFDKGSLFGGSVKLALASLGYEKSCVLFNCAALASQIAAEQNLDNDEGLKIAAKHYQFASGAFLHIKETVLSALSREPTVDISPDTVGTLSLIMLAQAQEVFFLKATRDKMKDAIIAKLANQAADYFGDAFKQCQYKDTLPKEVFPVLAAKHCIMQANAEYHQSILAKQQKKFGEEIARLQHAAELIKTVASRYDEYVNVKDFSDKINRALAAAKKDNDFIYHDRVPDLKDLDPIGKATLVKSTPVNVPISQKFTDLFEKMVPVSVQQSLAAYNQRKADLVNRSIAQMREATTLANGVLASLNLPAAIEDVSGDTVPQSILTKSRSVIEQGGIQTVDQLIKELPELLQRNREILDESLRLLDEEEATDNDLRAKFKERWQRTPSNELYKPLRAEGTNFRTVLDKAVQADGQVKECYQSHRDTIVLLCKPEPELNAAIPSANPAKTMQGSEVVNVLKSLLSNLDEVKKEREGLENDLKSVNFDMTSKFLTALAQDGVINEEALSVTELDRVYGGLTTKVQESLKKQEGLLKNIQVSHQEFSKMKQSNNEANLREEVLKNLATAYDNFVELVANLKEGTKFYNELTEILVRFQNKCSDIVFARKTERDELLKDLQQSIAREPSAPSIPTPAYQSSPAGGHAPTPPTPAPRTMPPTKPQPPARPPPPVLPANRAPSATAPSPVGAGTAAPAPSQTPGSAPPPQAQGPPYPTYPGYPGYCQMPMPMGYNPYAYGQYNMPYPPVYHQSPGQAPYPGPQQPSYPFPQPPQQSYYPQQ
B9: CKAP4_HUMAN (protein, UniProt Q07065 1-602, looked up)
Cytoskeleton-associated …: MPSAKQRGSKGGHGAASPSEKGAHPSGGADDVAKKPPPAPQQPPPPPAPHPQQHPQQHPQNQAHGKGGHRGGGGGGGKSSSSSSASAAAAAAAASSSASCSRRLGRALNFLFYLALVAAAAFSGWCVHHVLEEVQQVRRSHQDFSRQREELGQGLQGVEQKVQSLQATFGTFESILRSSQHKQDLTEKAVKQGESEVSRISEVLQKLQNEILKDLSDGIHVVKDARERDFTSLENTVEERLTELTKSINDNIAIFTEVQKRSQKEINDMKAKVASLEESEGNKQDLKALKEAVKEIQTSAKSREWDMEALRSTLQTMESDIYTEVRELVSLKQEQQAFKEAADTERLALQALTEKLLRSEESVSRLPEEIRRLEEELRQLKSDSHGPKEDGGFRHSEAFEALQQKSQGLDSRLQHVEDGVLSMQVASARQTESLESLLSKSQEHEQRLAALQGRLEGLGSSEADQDGLASTVRSLGETQLVLYGDVEELKRSVGELPSTVESLQKVQEQVHTLLSQDQAQAARLPPQDFLDRLSSLDNLKASVSQVEADLKMLRTAVDSLVAYSVKIETNENNLESAKGLLDDLRNDLDRLFVKVEKIHEKV
B10: MPP6_HUMAN (protein, UniProt Q99547 1-160, looked up)
M-phase phosphoprotein 6: MAAERKTRLSKNLLRMKFMQRGLDSETKKQLEEEEKKIISEEHWYLDLPELKEKESFIIEEQSFLLCEDLLYGRMSFRGFNPEVEKLMLQMNAKHKAEEVEDETVELDVSDEEMARRYETLVGTIGKKFARKRDHANYEEDENGDITPIKAKKMFLKPQD

The experiment concerns KDM4A-I71AzF. The experiment in a line: CASI: photo-crosslinking with HEK293T cell extracts, StrepTactin enrichment and LC-MS/MS proteomics.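 Further: lysates from HEK293T cells pretreated with a KDM4 inhibitor to raise proteome methylation, affinity-purified after ±UV, gel-resolved, trypsin-digested, with exclusive unique peptides per protein averaged per condition.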 Format: binding, human. The following applies: sheet "Final results but with 0.01".
Regarding B1, the “Fold change (+UV/-UV)” value was found to be 800. The figure for B2 is 200; for B3 it is 300; for B4 it is 200. Consider B5, for which the “Fold change (+UV/-UV)” value is 200. As for B6, the “Fold change (+UV/-UV)” value is recorded as 2. As for B7, the “Fold change (+UV/-UV)” value is reported as 1.

On to B8, for which the “Fold change (+UV/-UV)” value was determined as 200.

On to B9, for which the “Fold change (+UV/-UV)” value worked out at 200. The figure for B10 is 200.
